Source: patent publication US20210317479, “NUCLEIC ACID ASSEMBLIES FOR USE IN TARGETED DELIVERY” (The Broad Institute, Inc., published 2021)

Tests used:
SpCas9 [1] = target: T1, SpCas9 (Streptococcus pyogenes, UniProt Q99ZW2 Q99ZW2:1-1368); assay: EMSA; 5x molar Cas9 shifted nanoparticle band into the well; details: sgRNA whose 3' extension hybridises to DNA scaffold
Protocol: The DNA was amplified and purified by Qiagen, and transcribed using the NEB T7 HiScribe kit modified for short RNA production, and purified by PAGE purification. It was then folded with 50 mM HEPES-KOH pH 7.5, 300 mM KCl following the RNA/DNA hybrid folding protocol. The excess staples were purified away from the PB84 with a 100 kDa MWCO filter. A 2% high resolution agarose gel with 1×TAE buffer and 4 mM Mg-acetate was run at 4 C in the cold room at 65V for 180 minutes.
It was observed that the nanoparticle with the RNA staple presented a band at the same size as the all-DNA staple nanoparticle.

SpCas9 [2] = target: T1, SpCas9; assay: EMSA; DX tile band shifted toward well on annealing with Cas9; sgRNA maintained after RNase H; details: sgRNA fused to central RNA staple of DX tile
Protocol: Dx-tiles were made either containing the Gint or broccoli aptamers. To prepare the folded DX-tiles, the components (e.g., DNA scaffold, two flanking/end staples encoding either the Gint (i.e., Gint4.T and Gint21.T) or broccoli aptamers, and central staple) were mixed in equimolar concentrations and allowed to anneal over 2 hours from 95 C to 25 C. The resulting structures were visualized by gel electrophoresis.
Several bands were originally visualized, showing impurities in the production. […] Given that staple 2 spans across the region targeted by the sgRNA and could therefore contribute to misfolding, in a repeat experiment, staple 2 was left out of the folding mixture. This yielded higher folding. Upon addition and annealing with Cas9, the DX tile band was closer to the well on the gel. Addition of RNase H both with and without Cas9 released the HDR template.

T1 sequence (Q99ZW2 whole entry, one chain of several): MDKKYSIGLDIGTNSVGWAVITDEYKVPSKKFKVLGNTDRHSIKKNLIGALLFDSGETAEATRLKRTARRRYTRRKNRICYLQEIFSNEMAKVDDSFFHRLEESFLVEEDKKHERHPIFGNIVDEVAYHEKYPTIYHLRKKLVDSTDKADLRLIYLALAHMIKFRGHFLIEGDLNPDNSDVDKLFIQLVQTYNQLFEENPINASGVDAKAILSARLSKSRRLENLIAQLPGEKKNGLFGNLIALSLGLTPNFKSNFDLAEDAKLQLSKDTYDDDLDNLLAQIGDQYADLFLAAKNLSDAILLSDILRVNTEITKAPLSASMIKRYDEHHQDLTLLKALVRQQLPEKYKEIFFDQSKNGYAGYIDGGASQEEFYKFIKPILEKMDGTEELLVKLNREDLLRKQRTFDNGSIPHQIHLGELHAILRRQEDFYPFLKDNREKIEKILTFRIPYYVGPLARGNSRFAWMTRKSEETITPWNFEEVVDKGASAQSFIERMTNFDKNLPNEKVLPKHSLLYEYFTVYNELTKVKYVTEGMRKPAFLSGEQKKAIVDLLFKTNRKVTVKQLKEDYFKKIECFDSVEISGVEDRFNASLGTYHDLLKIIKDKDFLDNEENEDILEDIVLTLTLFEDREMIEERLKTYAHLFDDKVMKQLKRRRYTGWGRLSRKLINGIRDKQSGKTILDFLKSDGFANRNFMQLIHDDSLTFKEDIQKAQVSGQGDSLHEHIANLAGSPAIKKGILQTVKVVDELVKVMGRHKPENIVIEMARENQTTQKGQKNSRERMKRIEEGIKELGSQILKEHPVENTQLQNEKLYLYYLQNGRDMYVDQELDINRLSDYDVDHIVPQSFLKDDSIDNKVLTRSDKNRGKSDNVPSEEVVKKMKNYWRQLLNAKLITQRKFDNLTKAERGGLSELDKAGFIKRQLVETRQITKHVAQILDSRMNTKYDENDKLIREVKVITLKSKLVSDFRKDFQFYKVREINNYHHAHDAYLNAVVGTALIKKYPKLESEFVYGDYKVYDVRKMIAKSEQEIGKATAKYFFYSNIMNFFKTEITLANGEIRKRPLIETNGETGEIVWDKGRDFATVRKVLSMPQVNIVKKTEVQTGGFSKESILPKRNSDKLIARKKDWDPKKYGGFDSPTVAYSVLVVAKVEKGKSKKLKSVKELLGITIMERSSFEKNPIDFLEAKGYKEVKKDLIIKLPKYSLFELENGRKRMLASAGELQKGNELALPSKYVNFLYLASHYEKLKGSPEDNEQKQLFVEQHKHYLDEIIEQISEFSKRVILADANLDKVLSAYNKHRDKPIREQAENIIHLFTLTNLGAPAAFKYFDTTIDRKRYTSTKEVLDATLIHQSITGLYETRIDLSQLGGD

| Binder | binding result (SpCas9 [1]) | binding result (SpCas9 [2]) |
| --- | --- | --- |
| PCSK9 sgRNA with 3' staple extension (PB84), folded in DNA pentagonal bipyramid (ssRNA) RNA: GGCUGAUGAGGCCGCACAUGGUUUUAGAGCUAUGCUGUUCUUCGGAACAGCAUAGCAAGUUAAAAUAAGGCUAGUCCGUUAUCAACUUGAAAAAGUGGCACCGAGUCGGUGCAAAAAUCACCCAGAAACGCUGGUGAAAGUGUAUGAGUAUUCAACAUUUCCGUGUCGCCCUUGUUUUUGCUGCAG | binds |  |
| EGFP sgRNA-staple 3, in DX tile with HDR DNA scaffold (ssRNA) RNA: GCUGAAGCACUGCACGCCGUGUUUUAGAGCUAUGCUGUUGAAAAACAGCAUAGCAAGUUAAAAUAAGGCUAGUCCGUUAUCAACUUGAAAAAGUGGCACCGAGUCGGUGCUUUUUCUGGCCCACCCUCAGCCGCUACCCCGACCACAUGAGCCCGUGCC |  | binds |
